Experimental data published in patent publication US20100233079A1 (AbbVie / Abbott, published 2010).
Changes are numbered by the printed parent chain. Values belong to the binder of their own block, whether it stands above or below them.

What was measured:
[1] = target: T1, rhIL-13 (recombinant human IL-13) (human, UniProt P35225 35-146, limits assumed); assay: cell-based or functional assay
[2] = target: T1, rhIL-13 (recombinant human IL-13); assay: SPR (Biacore 3000), mAb captured by anti-human IgG Fc, antigen in solution
Description: Unreacted moieties on the biosensor surface were blocked with ethanolamine. Modified carboxymethyl dextran surface in flowcell 2 and 4 was used as a reaction surface.

[3] = target: T2, NRP1 (Neuropilin-1 Npn-1-His tag) (UniProt O14786-2 22-644, limits assumed); assay: direct bind ELISA, antigen on plate
T2 construct: Bought antigen with a His tag
Protocol: Enzyme Linked Immunosorbent Assays to screen for antibodies that bind a desired target antigen were performed as follows. […] Plates were washed four times with PBS containing 0.02% Tween 20. […] Plates were washed four times after blocking with PBS containing 0.02% Tween 20.
One hundred microliters of 10 ng/mL goat anti-human IgG-FC specific HRP conjugated antibody (Southern Biotech #2040-05, Birmingham, Ala.) was added to each well of the desired target antigen plate or anti-polyHistidine antibody/Histidine tagged desired target antigen plate. Alternatively, one hundred microliters of 10 ng/mL goat anti-human IgG-kappa light chain specific HRP conjugated antibody (Southern Biotech #2060-05 Birmingham, Ala.) was added to each well of the desired target antigen/FC fusion plate and incubated for 1 hour at room temperature. Plates were washed 4 times with PBS containing 0.02% Tween 20.

T1 sequence (P35225 35-146 limits assumed): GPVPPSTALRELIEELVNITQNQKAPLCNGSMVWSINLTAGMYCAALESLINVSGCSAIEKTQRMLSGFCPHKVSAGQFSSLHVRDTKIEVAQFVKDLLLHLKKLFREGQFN

- IC50 (nM), A549 bioassay (IL-13 induced TARC) [1]: 0.2 nM
- Kd [2]: 150 pM
B1: 13C5.5 (antibody, V domains shown)
VH: EVTLRESGPGLVKPTQTLTLTCTLYGFSLSTSDMGVDWIRQPPGKGLEWLAHIWWDDVKRYNPALKSRLTISKDTSKNQVVLKLTSVDPVDTATYYCARTVSSGYIYYAMDYWGQGTLVTVSS
VL: DIQMTQSPSSLSASVGDRVTISCRASQDIRNYLNWYQQKPGKAPKLLIFYTSKLHSGVPSRFSGSGSGTDYTLTISSLQPEDIATYYCQQGNTLPLTFGGGTKVEIKR
notes: Monoclonal antibody; also called AB231

- IC50 (nM), A549 bioassay (IL-13 induced TARC) [1]: 0.31 nM
- Kd [2]: 240 pM
B2: 13C5.5L3F (antibody, V domains shown)
VH: B1 VH
VL: B1 VL with N92L, L94P
notes: Monoclonal antibody; also called AB232

- EC50 [3]: 280 pM
B3: AB016 (antibody, V domains shown)
VH: EVQLVESGGGLVQPGGSLRLSCAASGFSFSSEPISWVRQAPGKGLEWVSSITGKNGYTYYADSVKGRFTISADTSKNTAYLQMNSLRAEDTAVYYCARWGKKVYGMDVWGQGTLVTVSS
VL: DIQMTQSPSSLSASVGDRVTITCRASQSISSYLAWYQQKPGKAPKLLIYGASSRASGVPSRFSGSGSGTDFTLTISSLQPEDFATYYCQQYMSVPITFGQGTKVEIKR
notes: Parent antibody
